In patent US20200248174:

Legend:
[1] = biological target: dCas9 (SpCas9 D10A, H840A) ligated to SH3 domain via 2xGS linker
[2] = biological target: dCas9 (SpCas9 D10A, H840A) with a plurality of binding domains (SH3 domains)

B1: human AID deaminase added with SH3 ligand sequence (protein)
chain: MDSLLMNRRKFLYQFKNVRWAKGRRETYLCYVVKRRDSATSFSLDFGYLRNKNGCHVELLFLRYISDWDLDPGRCYRVTWFTSWSPCYDCARHVADFLRGNPYLSLRIFTARLYFCEDRKAEPEGLRRLHRAGVQIAIMTFKDYFYCWNTFVENHERTFKAWEGLHENSVRLSRQLRRILLPLYEVDDLRDAFRTLGLLDPPPALPPKRRR
introduction of mutation into the targeted site of the CAN1 gene in budding yeast [1]: even when dCas9 and deaminase were linked via the binding domain, mutation was efficiently introduced into the targeted site of the CAN1 gene | mutation introduction efficiency at the CAN1 gene in budding yeast [2]: The mutation introduction efficiency was remarkably improved by introducing a plurality of binding domains into dCas9
